For four substances, EC50 (nM), cell growth activity using BaF3/hGHR cells (absorbance, EC50 of 22KhGH-mHSA relative to EC50 of mHSA-22KhGH, cell growth activity using BaF3/hGHR cells and EC50 of 22KhGH-HSA relative to EC50 of HSA-22KhGH, cell growth activity using BaF3/hGHR cells results are on record in US20180244754A1.

This assay deals with human GH receptor (hGHR) (human) (UniProt P10912). Briefly: cell-based or functional assay.
Chain of UniProt P10912 (P10912 19-638): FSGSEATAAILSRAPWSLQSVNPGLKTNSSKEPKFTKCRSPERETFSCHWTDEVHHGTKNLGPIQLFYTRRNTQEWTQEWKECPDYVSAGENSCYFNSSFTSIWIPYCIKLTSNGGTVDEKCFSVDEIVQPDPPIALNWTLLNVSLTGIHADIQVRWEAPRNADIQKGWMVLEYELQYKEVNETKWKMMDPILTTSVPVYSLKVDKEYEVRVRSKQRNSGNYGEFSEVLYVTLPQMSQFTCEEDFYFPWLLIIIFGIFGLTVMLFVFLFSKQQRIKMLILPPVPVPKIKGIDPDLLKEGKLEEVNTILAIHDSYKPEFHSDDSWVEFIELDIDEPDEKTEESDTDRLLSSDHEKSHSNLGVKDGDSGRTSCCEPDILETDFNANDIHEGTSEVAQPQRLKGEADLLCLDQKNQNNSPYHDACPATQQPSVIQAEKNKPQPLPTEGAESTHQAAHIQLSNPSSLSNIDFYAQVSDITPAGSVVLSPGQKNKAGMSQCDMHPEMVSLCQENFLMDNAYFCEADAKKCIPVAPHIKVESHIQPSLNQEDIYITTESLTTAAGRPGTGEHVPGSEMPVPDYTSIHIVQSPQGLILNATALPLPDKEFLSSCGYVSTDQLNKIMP

The substance 22KhGH-mHSA (ligand) returned an EC50 (nM), cell growth activity using BaF3/hGHR cells (absorbance at 490 nM) of 1.2 nM and an EC50 of 22KhGH-mHSA relative to EC50 of mHSA-22KhGH, cell growth activity using BaF3/hGHR cells of 7.8 times.

As to mHSA-22KhGH (ligand), the EC50 (nM), cell growth activity using BaF3/hGHR cells (absorbance at 490 nM) stood at 0.153 nM.

22KhGH-HSA (ligand) returned an EC50 (nM), cell growth activity using BaF3/hGHR cells (absorbance at 490 nM) of 0.878 nM and an EC50 of 22KhGH-HSA relative to EC50 of HSA-22KhGH, cell growth activity using BaF3/hGHR cells of 6.4 times.

HSA-22KhGH (ligand) gave an EC50 (nM), cell growth activity using BaF3/hGHR cells (absorbance at 490 nM) of 0.138 nM.
